# The nanobody polyreactivity screen of Harvey et al. (2022)
# Experiment: yeast display, Sf9 membrane polyspecificity reagent, FACS + sequencing; frameworks hold sequencing errors
# Procedure, shortened: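 Synthetic nanobody libraries on Saccharomyces cerevisiae BJ5465 were galactose-induced for 36–48 hours, stained 1 hour at 4 °C with 10% biotinylated, detergent-solubilized Sf9 membrane reagent and enriched on streptavidin microbeads. FACS then separated cells into low and high (top ~1%) gates by anti-HA (expression) and streptavidin (reagent binding) fluorescence. Genes were colony-PCR amplified, MiSeq 2 × 250 sequenced and CDR-length filtered. A clone's polyreactivity label is that of its gate of origin.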
row,Sequence,polyreactivity (PSR sort gate)
1,QVQLVESGGGLVQAGGSLRLSCAASGRTFSTNAMGWYRQAPGKERELVAAITSRGGSTYYADSVKGRFTISRDNAKNTVYLQMNSLKPEDPAVYYCAVDPLYYKTHYGTLGYYYLGQGTQVTVSS,low polyreactivity
2,QVQLVESGGGLVQAGGSLRLSCAASGRTFSTYAMGWYRQAPGKERELFAAISSGGGRTYYADSVKGRFTISRDNAKNTVYLQMNSLKPEDTAVYYCAADRYFRSRRSYEYWGQGTQVTVSS,low polyreactivity
3,QVQLVESGGGLVQAGGSLRLSCAASGRTFSTYAMGWYRQATGKERELVAAIRSGGSTYYADSVKGRFTISRDNAKNTVYLQMNSLKPEDTAVYYCNALPRPSIFRYDYWGQGTQVTVSS,high polyreactivity
4,QVQLVESGGGLVQAGGSLRLSCAASGRTFSVNAMGWYRQAPGKEREFVAAITGSTGSTFYADSVKGRFTISRDNAKNSVYLQMNSLKPDDTAVYYCAAGPWFYYWGQGTQVTVSS,low polyreactivity
5,QVQLVESGGGLVQAGGSLRLSCAASGRTFSVNAMGWYRQAPGKERELVAAISWDGGSTYYADSVKGRFTISRDNAKNTVYLQMNSLKPEDTAVYYCNADYSIPGYYWPYDYWGQGTQVTVSS,low polyreactivity
6,QVQLVESGGGLVQAGGSLRLSCAASGRTFSVNDMGRYRQAPGKEREMVAAISFSGGSTYYADSVKGRFTISRDDAKNTVYLQMNSLKPEDTAVYYCAAEAYPSWFYVITGFGIYDYWGQGTQVTVSS,high polyreactivity
7,QVQLVESGGGLVQAGGSLRLSCAASGRTFSVNDMGWYRQAPGKERELVAAISFSGGSTYYADSVKGRFTISRDNAKNTVYLQMNSLKPEDTAVYYCAAEAYPSWFYVITGFGIYDYWGQGTQVTVSS,high polyreactivity
8,QVQLVESGGGLVQAGGSLRLSCAASGRTFSVNDMGWYRQAPGKERELVAAISFSGGSTYYADSVKGRFTISRDNAKNTVYLQMNSLKPEDTAVYYCAARVRWWSPGGYWGQGTQVTVSS,high polyreactivity
9,QVQLVESGGGLVQAGGSLRLSCAASGRTFSVYAMGWYRQAPGKERELVAAIRTSGGITYYADSVKGRFTISRDNAKNTVYLQMNSLKPEDTAVYYCAAETFRPYSYTRYYYWGQGSQVTVSS,high polyreactivity
10,QVQLVESGGGLVQAGGSLRLSCAASGRTFSWNAMGWYRQAPGKERELVAAISNSGGSTYYADSVKGRFTISRHNAKNPVYLQMNSLKPEDTAVYYCAADDIYKYYQYYAFPYYRYDYWGQGTQVTVSS,low polyreactivity
11,QVQLVESGGGLVQAGGSLRLSCAASGRTFSWYAMGGYRQAPGTERELVASISRGGSKSYADSVKGRFTISRDNAKNTVYLQMNSLKPEYTAVYYCAAGGFARTISYYWGQGTQVTVSS,high polyreactivity
12,QVQLVESGGGLVQAGGSLRLSCAASGRTFSYNAIGWYRLAPGKERELVARISSGGSTNYADSVKGRFTISRDNAKNTVYLQMNSLKPEDTAVYYCNAVYRTYEYYWGQGTQVTVSS,high polyreactivity
13,QVQLVESGGGLVQAGGSLRLSCAASGRTFSYNAMGWYRQAPGKERELVASISSSGTSTSYADSVKGRFTISRDNAKNTVYLQMNSLKPEDTAVYYCATVRYPYWYSGPQNSRGYWGQGTQVTVSS,high polyreactivity
14,QVQLVESGGGLVQAGGSLRLSCAASGRTFSYYAMGWSRQAPGKERELVATIRFSGGGTYYADSVKGRFTISRDNAKNTVYLLMNSLKPEATAVYYCAALNYHKFAHKYDYWGQGTQVTVSS,low polyreactivity
15,QVQLVESGGGLVQAGGSLRLSCAASGRTFSYYAMGWYRKAPGKERELVAAFSGRGASTYYADSVKGRFTISRDNAKNTVYVQMNSLKPEDTAVYYCNAVPYYQYEYWGQGTQVTVSS,low polyreactivity
16,QVQLVESGGGLVQAGGSLRLSCAASGRTFSYYAMGWYRQAPGKEREFVAAISSTGTSTYYADSVKGRFTISRDTAKNTVYLQKNSLKPEDTAVYYCNARLATYRLHSKFYYWGQGTQVTVSS,high polyreactivity
17,QVQLVESGGGLVQAGGSLRLSCAASGRTFSYYAMGWYRQAPGKERELVAAISWRGGSTYYADSVKGRFTISRDNAKNTVYLQMNSLKPEDTAVYYCAALPRYALGEDYWGQGTQVTVSS,high polyreactivity
18,QVQLVESGGGLVQAGGSLRLSCAASGRTFSYYAMGWYRQAPGKERELVARITYRGGRTYYADSVKGRFTISRDNAKNTVYLQMNSLKPEDTAVYYCNADAINKRGGLDYWGQGTQVTVSS,high polyreactivity
19,QVQLVESGGGLVQAGGSLRLSCAASGRTFSYYAMGWYRQAPGKERSLVAAISWSGGRTYYADSVKGRFTISRDNAKNTVYLQMNSLKPEDTAVYYCAARYVYPYWYGDYYWGQGTQVTVSS,low polyreactivity
20,QVQLVESGGGLVQAGGSLRLSCAASGRTFSYYTMGWYRQAPGKERELVARISNRGTNTYYADSVKGRFTISRDNAKNTVYLQMNSLKPEDTAVYYCNTEDFFNVPEMDSWGQGTQVTVSS,low polyreactivity
21,QVQLVESGGGLVQAGGSLRLSCAASGRTFSYYVMGWYRQAAGKERELVAAISRTTRTYYADSVKGRFSISRDNAKNTVYLHMNSLKPEDTAVYYCAADFPKGHYHYWGHGTQVTVSS,high polyreactivity
22,QVQLVESGGGLVQAGGSLRLSCAASGRTFTFNAMGWYRQAPGKETELVAAISTSGGSTYYADSVKGRFTISRDNAKNTVYLQMNSLKPEDTAVYYCNTYPYYRAGGSDYWGQGTQVTVSS,high polyreactivity

row,Sequence,polyreactivity (PSR sort gate)
1,QVQLVESGGGLVQAGGSLRLSCAASGRTFTFYTMGWYRQAPGKERELVAAITSGGSTYYADSVKGRFTISRDNAKNTVYLQMNSLKPEDTAVYYCAAKYYYTYYYWGQGTQVTVSS,high polyreactivity
2,QVQLVESGGGLVQAGGSLRLSCAASGRTFTGNTMGWYRQAPGKERELVAAISSSGGRTYYADSVKGRFTISRDNAKNTVYLQMNSLKQVDTAVYYCNATIWRTQYGYWGQGTQVTVSS,high polyreactivity
3,QVQLVESGGGLVQAGGSLRLSCAASGRTFTGNVMGWYIKAPGKERELVAAISRSGTSTYYADSVKGRFTISRDNAKNTVYLQMNSRKPEDTAVYYCAARRTAGYRSAEYDYWGQGTQVTVSS,high polyreactivity
4,QVQLVESGGGLVQAGGSLRLSCAASGRTFTGYAMGWYRQAPGKERELVAAISSRVGSTYYADSVKGRFTISRDNAKNTVYLQMNSLKPEDTAVYYCAKDSQSYTREAYYYWGQGTQVTVSS,low polyreactivity
5,QVQLVESGGGLVQAGGSLRLSCAASGRTFTGYAMGWYRQAPGKERELVAAITRSGTRTYYADSVKGRFTISRDNAKNTVYLQMNSLKPEDTAVYYCAAADTQGVSMDYWGQGTQVTVSS,high polyreactivity
6,QVQLVESGGGLVQAGGSLRLSCAASGRTFTGYAMGWYRQAPGKERELVAAMSASGGSTYYADSVKGRFTISRDNAKNTVYLQMNSLKPEDTAVYYCAAETWYSVLWEEGYDYWGQGTQVTVSS,low polyreactivity
7,QVQLVESGGGLVQAGGSLRLSCAASGRTFTGYTMGWYRQAPGKEREFVAAISSNGGRTYYADSVKGRFTISRDNAKNTVYIQMNSLKPEDTAVYYCAAPYTFWGQGTQVTVSS,high polyreactivity
8,QVQLVESGGGLVQAGGSLRLSCAASGRTFTHNTMGWYRQAPGKERELVAAISRSGASTYYADSVKGRFTISRDNAKNTVYLQMNRLKPEDTAVYYCNAYSRPHFGYVVGTKSRHGYWGQGTQVTVSS,high polyreactivity
9,QVQLVESGGGLVQAGGSLRLSCAASGRTFTHYAMGWYRQAPGKERELVAAISRSGGTTYYADSVKGRFTISRDNAKSTVYLQMNSLKPEDTAVYYCNAEVVDFELGVFEDYYWAYDYWGQGTQVTVSS,high polyreactivity
10,QVQLVESGGGLVQAGGSLRLSCAASGRTFTHYAMGWYRQAPGKERELVAAISSGGGTYYADSVKGRFTISRDNAKNTVYLQMNSLKPEDTAVYYCNADYTNYHDPFRTYGYWGQGTQVTVSS,low polyreactivity
11,QVQLVESGGGLVQAGGSLRLSCAASGRTFTINAMGWYRQAPGKERELVATIRVSGGSTYYADSVKGRFTISRDNAKNTVYLQMNSLKPEDTAVYYCAKGGTYFYAPAYDYWGQGTQVTVSS,low polyreactivity
12,QVQLVESGGGLVQAGGSLRLSCAASGRTFTINTLGWYRQAAGKERELVAAIVGDGTTNYADSVKGLFTISGDNAKNTVDLQMNSLKPEDTAVYYCAADAGYLYDWPYNSYYWGQGTQLTVSS,low polyreactivity
13,QVQLVESGGGLVQAGGSLRLSCAASGRTFTIYARGWYRQAPGKERELVAAIRRTGVSTYYADSVKGRFTISRDYAKNTVYLQMNSLKPEDTAVYYCAARQYSYLRLWWYEYWGQGTQVTVSS,high polyreactivity
14,QVQLVESGGGLVQAGGSLRLSCAASGRTFTNNAMGWYRQAPGKERELVAAIRWSGGSTYYADSVKGRFTISRDNAKNTVYLQMNSLKPEDTAVYYCAKGYGYVEAVIVQYDYWGQGTQVTVSS,low polyreactivity
15,QVQLVESGGGLVQAGGSLRLSCAASGRTFTPNAMGGYRQAPGKERELVAAIDWRGGRTYYADSVKGRFTISRDNAKNTVYLQMNSLKPEDSAVYYCAARVDGYHYKSAGYSYGVYYWGQGTQVTVSS,low polyreactivity
16,QVQLVESGGGLVQAGGSLRLSCAASGRTFTPNAMGWYRQAPGKERELVASIRRGTSTYYADSVKGRFTISRDNAKNTVYLQMNSLKPEDTAVYYCAAKSYHGYPFDYWGQGTQVTVSS,high polyreactivity
17,QVQLVESGGGLVQAGGSLRLSCAASGRTFTPYAMGWYRQAPGKERELVAAINSDGSTNYADSVKGRFTISRDNAKNTVYLHMNSLKPEDTAVYYCAAGYSLEGDYWGQGTQVTVSS,low polyreactivity
18,QVQLVESGGGLVQAGGSLRLSCAASGRTFTPYAMGWYRQAPGKERELVATISSGTSTNYADSVNGRFTISRDNAKNTVYLQMNSLKPEDTAVYYCAADGYTYKFDYWGQGTQVTVSS,low polyreactivity
19,QVQLVESGGGLVQAGGSLRLSCAASGRTFTPYDMGWYRQAPGKERELVAAITWRGGSTYYADSVKGRFTISRDNAKNTVYLQMNSLKPEDTAVYYCAKDRWTYAFRVGYGYWGQGTQVTVSS,high polyreactivity
20,QVQLVESGGGLVQAGGSLRLSCAASGRTFTRNAMGWYRQAPGKERELVAAISYSGGSTYYADSVKGRFTISRDNAKNTVYLQMNSLKPEDTAVYYCNAATSRRSIRYDYWGQGTQVTVSS,high polyreactivity
21,QVQLVESGGGLVQAGGSLRLSCAASGRTFTRYAMGWYRQAPGKERELVAAISWSGTSTHYADSVKGGFTISRDNATNTVYLQMNSLKPEDTAVYYCAARRYPVLKYDYWGQGTQVTVSS,high polyreactivity
